How the values were obtained:
[1] = target: T1, HLA-A2.1 (HLA-A*0201) on the surface of T2 cells (human); assay: T2 stabilisation assay, flow cytometry
T1 construct: also called HLA-A2 on T2

[2] = target: T2, HLA-A2.1 heavy chain with I125-labeled beta2-microglobulin (heterotrimer dissociation assay) (human, I^125-labeled); assay: dissociation of I125-labeled beta2-microglobulin from the heavy chain/peptide/beta2-microglobulin complex, HPLC gel filtration
T2 construct: T1/2 is the half-time of dissociation of labeled beta2-microglobulin from the heavy chain/peptide/beta2-microglobulin complex; also called HLA-A2.1 heavy chain / beta2-microglobulin complex

[3] = target: T2, HLA-A2.1 heavy chain with I125-labeled …; assay: I125-beta2-microglobulin dissociation assay
[4] = target: T1, HLA-A2.1 (HLA-A*0201) on the surface of …; assay: T2 stabilisation assay, indirect flow cytometry with BB7.2 (FIG. 34)

KLNDILLIQL (also called PR71) [PR7I peptide of proteinase 3 (amino acid 115-124, Ile 119 variant)]: binds [1].

KLNDVLLIQL [PR7V peptide of proteinase 3 (amino acid 115-124, Val 119 variant)]: binds [1].

With VLQELNVTV (Synthetic peptide, minimum 95% purity) [PR1 (aa 169-177) peptide of proteinase 3] the T1/2 [2] was 24.3 h.

SLWRRPFNV [MY1 peptide of myeloperoxidase]: binds [3]; binds [4].

KLLLALAGL [MY2 peptide of myeloperoxidase]: binds [3]; binds [4].

LLSYFKQPV [MY3 peptide of myeloperoxidase]: binds [3]; binds [4].

RLFEQVMRI [MY4 peptide of myeloperoxidase]: binds [3]; binds [4].

LIQPFMFRL [MY5 peptide of myeloperoxidase]: binds [3]; binds [4].

For RLFPDFFTRV [PR2 peptide of proteinase 3], the T1/2 [2] was 2.33 h.

— patent US20060045883A1 (published 2006)
